From the supplement of paper PMC10567573

B1: ZNF511 (parent)
chain: YEHHYHTLHGNVCSFCKRAFPSGH
B2: ZER1 (parent)
chain: PILRLLPQGISPVSQHWATWALYN

Variants of: B1
Test: protein stability index of a GFP-peptide fusion (GPS, HEK-293T) (PSI 1-6); higher = more stable
Conditions: c terminus: a fixed tail appended
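Further: lentivirally expressed fusions sorted by FACS into six bins by GFP to DsRed ratio, PSI derived from sequencing read proportions per bin multiplied by bin number.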

| Variant | protein stability index |
| --- | --- |
| YEHHYHTLHGNVCSFCKRAFPSGG | 2.09 |
| YEHHYHTLHGNVCSFCKRAFPSGF | 2.5 |
| YEHHYHTLHGNVCSFCKRAFPSGP | 2.08 |
| YEHHYHTLHGNVCSFCKRAFPSGQ | 2.08 |
| YEHHYHTLHGNVCSFCKRAFPSGS | 2.46 |
| YEHHYHTLHGNVCSFCKRAFPSGV | 2.25 |
| YEHHYHTLHGNVCSFCKRAFPSGT | 2.24 |
| YEHHYHTLHGNVCSFCKRAFPSGY | 1.65 |
| YEHHYHTLHGNVCSFCKRAFPSGI | 1.78 |
| YEHHYHTLHGNVCSFCKRAFPSGE | 2.57 |
| YEHHYHTLHGNVCSFCKRAFPSGN | 2.39 |
| YEHHYHTLHGNVCSFCKRAFPSGL | 2.02 |
| YEHHYHTLHGNVCSFCKRAFPSGM | 2.17 |
| YEHHYHTLHGNVCSFCKRAFPSGW | 2.43 |
| YEHHYHTLHGNVCSFCKRAFPSGR | 2.08 |
| YEHHYHTLHGNVCSFCKRAFPSGD | 2.35 |
| YEHHYHTLHGNVCSFCKRAFPSGK | 1.57 |

Variants of: B2
Test: as above
Conditions: c terminus: a fixed tail appended

| Variant | protein stability index |
| --- | --- |
| PILRLLPQGISPSSQHWATWALYN | 2.54 |
| PILRLLPQGISPCSQHWATWALYN | 2.48 |
| PILRLLPQGISPLSQHWATWALYN | 2.34 |
| PILRLLPQGISPDSQHWATWALYN | 2.84 |
| PILRLLPQGISPTSQHWATWALYN | 3.01 |
| PILRLLPQGISPASQHWATWALYN | 4.06 |
| PILRLLPQGISPISQHWATWALYN | 1.68 |
| PILRLLPQGISPGSQHWATWALYN | 1.87 |
| PILRLLPQGISPNSQHWATWALYN | 1.8 |
| PILRLLPQGISPFSQHWATWALYN | 1.88 |
| PILRLLPQGISPWSQHWATWALYN | 1.54 |
| PIHRLLPQGISPVSQHWATWALYN | 1.75 |
| PIDRLLPQGISPVSQHWATWALYN | 3.05 |
| PIIRLLPQGISPVSQHWATWALYN | 1.5 |
| PITRLLPQGISPVSQHWATWALYN | 2.52 |
| PIARLLPQGISPVSQHWATWALYN | 3.7 |
| PIRRLLPQGISPVSQHWATWALYN | 1.95 |
| PIWRLLPQGISPVSQHWATWALYN | 1.02 |
| PIERLLPQGISPVSQHWATWALYN | 1.36 |
| PIQRLLPQGISPVSQHWATWALYN | 1.62 |
| PIGRLLPQGISPVSQHWATWALYN | 1.44 |
| PIYRLLPQGISPVSQHWATWALYN | 1.06 |
| PIVRLLPQGISPVSQHWATWALYN | 1.78 |
| PIPRLLPQGISPVSQHWATWALYN | 1.04 |
| PINRLLPQGISPVSQHWATWALYN | 2.54 |

| Variant | protein stability index |
| --- | --- |
| PILRLLPQGISPVSQHIATWALYN | 3.9 |
| PILRLLPQGISPVSQHMATWALYN | 3.18 |
| PILRLLPQGISPVSQHEATWALYN | 2.35 |
| PILRLLPQGISPVSQHSATWALYN | 2.51 |
| PILRLLPQGISPVSQHHATWALYN | 1.57 |
| PILRLLPQGISPVSQHGATWALYN | 1.93 |
| PILRLLPQGISPVSQHKATWALYN | 2.16 |
| PILRLLPQGISPVSQHQATWALYN | 3.2 |
| PILRLLPQGISPVSQHYATWALYN | 2.15 |
| PILRLLPQGISPVSQHPATWALYN | 1.4 |
| PILRLLPQGISPVSQHCATWALYN | 2.27 |
| PILRLLPQGISPVSQHRATWALYN | 3.1 |
| PILRLLPQGISPVSQHVATWALYN | 2.59 |
| PILRLLPQGISPVSQHAATWALYN | 1.72 |
| PILRLLPQGISPVSQHFATWALYN | 3.63 |
| PILRLLPQGISPVSQHTATWALYN | 1.73 |
| PILRLLPQGISPVSQHNATWALYN | 1.83 |
| PILRLLPQGISPVSQHDATWALYN | 1.79 |
| PILRLLPQGISPVSQHLATWALYN | 4.01 |
| PILRLLPYGISPVSQHWATWALYN | 2.12 |
| PILRLLPFGISPVSQHWATWALYN | 2.58 |
| PILRLLPKGISPVSQHWATWALYN | 2.29 |
| PILRLLPRGISPVSQHWATWALYN | 3.32 |
| PILRLLPHGISPVSQHWATWALYN | 1.5 |
| PILRLLPWGISPVSQHWATWALYN | 3.15 |

| Variant | protein stability index |
| --- | --- |
| PILRLLPQGISPVSQNWATWALYN | 2.34 |
| PILRLLPQGISPVSQRWATWALYN | 3.32 |
| PILRLLPQGISPVSQDWATWALYN | 2.11 |
| PILRLLPQGISPVSQEWATWALYN | 1.34 |
| PILRLLPQGISPVSQPWATWALYN | 1.45 |
| PILRLLPQGISPVSQKWATWALYN | 1.94 |
| PILRLLPQGISPVSQIWATWALYN | 3.38 |
| TILRLLPQGISPVSQHWATWALYN | 2.19 |
| HILRLLPQGISPVSQHWATWALYN | 2.39 |
| RILRLLPQGISPVSQHWATWALYN | 2 |
| AILRLLPQGISPVSQHWATWALYN | 5.68 |
| SILRLLPQGISPVSQHWATWALYN | 2.07 |
| FILRLLPQGISPVSQHWATWALYN | 3.24 |
| KILRLLPQGISPVSQHWATWALYN | 2.4 |
| PILRLLPQFISPVSQHWATWALYN | 2.78 |
| PILRLLPQQISPVSQHWATWALYN | 1.97 |
| PILRLLPQSISPVSQHWATWALYN | 2.01 |
| PILRLLPQKISPVSQHWATWALYN | 3.57 |
| PILRLLPQIISPVSQHWATWALYN | 2.95 |
| PILRLLPQTISPVSQHWATWALYN | 2.8 |
| PILRLLPQNISPVSQHWATWALYN | 2.01 |
| PILRLLPQHISPVSQHWATWALYN | 5.34 |
| PILRLLDQGISPVSQHWATWALYN | 2.52 |
| PILRLLFQGISPVSQHWATWALYN | 2.8 |
| PILRLLRQGISPVSQHWATWALYN | 1.55 |

| Variant | protein stability index |
| --- | --- |
| PILRLLAQGISPVSQHWATWALYN | 2.22 |
| PILRLLVQGISPVSQHWATWALYN | 1.65 |
| PILRLLMQGISPVSQHWATWALYN | 3.56 |
| PILRLLCQGISPVSQHWATWALYN | 2.12 |
| PILRLLTQGISPVSQHWATWALYN | 3.41 |
| PILRLLWQGISPVSQHWATWALYN | 1.97 |
| PILRLLEQGISPVSQHWATWALYN | 3.19 |
| PILRLLHQGISPVSQHWATWALYN | 5.21 |
| PILRLLPQGISPVSKHWATWALYN | 2.97 |
| PILRLLPQGISPVSNHWATWALYN | 2.99 |
| PILRLLPQGISPVSLHWATWALYN | 1.94 |
| PILRLLPQGISPVSMHWATWALYN | 4.6 |
| PILRLLPQGISPVSTHWATWALYN | 3.05 |
| PILRLLPQGISPVSEHWATWALYN | 2.19 |
| PILRLLPQGISPVSFHWATWALYN | 2.68 |
| PILRLLPQGISPVSGHWATWALYN | 1 |
| PILRLLPQGISPVSVHWATWALYN | 3.31 |
| PELRLLPQGISPVSQHWATWALYN | 2.45 |
| PKLRLLPQGISPVSQHWATWALYN | 2.04 |
| PHLRLLPQGISPVSQHWATWALYN | 1.17 |
| PTLRLLPQGISPVSQHWATWALYN | 2.92 |
| PALRLLPQGISPVSQHWATWALYN | 2.46 |
| PNLRLLPQGISPVSQHWATWALYN | 1.5 |
| PRLRLLPQGISPVSQHWATWALYN | 3.12 |
| PPLRLLPQGISPVSQHWATWALYN | 3.08 |

| Variant | protein stability index |
| --- | --- |
| PDLRLLPQGISPVSQHWATWALYN | 2.52 |
| PQLRLLPQGISPVSQHWATWALYN | 1.26 |
| PCLRLLPQGISPVSQHWATWALYN | 2.98 |
| PILRMLPQGISPVSQHWATWALYN | 3.4 |
| PILRYLPQGISPVSQHWATWALYN | 1.77 |
| PILRHLPQGISPVSQHWATWALYN | 2.07 |
| PILRDLPQGISPVSQHWATWALYN | 2.04 |
| PILRVLPQGISPVSQHWATWALYN | 3.75 |
| PILRCLPQGISPVSQHWATWALYN | 3.09 |
| PILRRLPQGISPVSQHWATWALYN | 1.84 |
| PILRALPQGISPVSQHWATWALYN | 1.65 |
| PILRFLPQGISPVSQHWATWALYN | 2.22 |
| PILRGLPQGISPVSQHWATWALYN | 3.62 |
| PILRQLPQGISPVSQHWATWALYN | 1.95 |
| PILRNLPQGISPVSQHWATWALYN | 1.99 |
| PILRTLPQGISPVSQHWATWALYN | 1.14 |
| PILRKLPQGISPVSQHWATWALYN | 1.25 |
| PILRLPPQGISPVSQHWATWALYN | 2.83 |
| PILRLYPQGISPVSQHWATWALYN | 2.65 |
| PILRLDPQGISPVSQHWATWALYN | 2.56 |
| PILRLFPQGISPVSQHWATWALYN | 3.51 |
| PILRLCPQGISPVSQHWATWALYN | 2.88 |
| PILRLQPQGISPVSQHWATWALYN | 1.46 |
| PILRLRPQGISPVSQHWATWALYN | 3.26 |
| PILRLEPQGISPVSQHWATWALYN | 2.53 |

| Variant | protein stability index |
| --- | --- |
| PILRLLPQGILPVSQHWATWALYN | 2.53 |
| PILRLLPQGIGPVSQHWATWALYN | 2.17 |
| PILRLLPQGIRPVSQHWATWALYN | 3.06 |
| PILRLLPQGIEPVSQHWATWALYN | 3.05 |
| PILRLLPQGIMPVSQHWATWALYN | 1.99 |
| PILRLLPQGICPVSQHWATWALYN | 3.31 |
| PILRLLPQGIWPVSQHWATWALYN | 1.59 |
| PILRLLPQGIHPVSQHWATWALYN | 2.03 |
| PILRLLPQGIPPVSQHWATWALYN | 1.77 |
| PILRLLPQGIVPVSQHWATWALYN | 2.22 |
| PILRLLPQGIDPVSQHWATWALYN | 3.26 |
| PILRLLPQGIIPVSQHWATWALYN | 2.53 |
| PILRLLPQGIAPVSQHWATWALYN | 2.83 |
| PILRLLPQGMSPVSQHWATWALYN | 3.55 |
| PILRLLPQGHSPVSQHWATWALYN | 2.79 |
| PILRLLPQGESPVSQHWATWALYN | 3.31 |
| PILRLLPQGLSPVSQHWATWALYN | 2.61 |
| PILRLLPQGDSPVSQHWATWALYN | 1.76 |
| PILRLLPQGNSPVSQHWATWALYN | 2.41 |
| PILRLLPQGISNVSQHWATWALYN | 1.85 |
| PILRLLPQGISHVSQHWATWALYN | 3.2 |
| PILRLLPQGISIVSQHWATWALYN | 3.2 |
| PILRLLPQGISQVSQHWATWALYN | 3.42 |
| PILRLLPQGISYVSQHWATWALYN | 3.44 |
| PILRLLPQGISKVSQHWATWALYN | 2.87 |

| Variant | protein stability index |
| --- | --- |
| PILRLLPQGISVVSQHWATWALYN | 2.1 |
| PILRLLPQGISAVSQHWATWALYN | 2.33 |
| PILRLLPQGISFVSQHWATWALYN | 3.32 |
| PILRLLPQGISPVCQHWATWALYN | 2.98 |
| PILRLLPQGISPVKQHWATWALYN | 1.43 |
| PILRLLPQGISPVVQHWATWALYN | 2.62 |
| PILRLLPQGISPVTQHWATWALYN | 1.11 |
| PILRLLPQGISPVYQHWATWALYN | 2.6 |
| PILRLLPQGISPVQQHWATWALYN | 2.12 |
| PILSLLPQGISPVSQHWATWALYN | 2.24 |
| PILWLLPQGISPVSQHWATWALYN | 2.54 |
| PILNLLPQGISPVSQHWATWALYN | 2.38 |
| PILQLLPQGISPVSQHWATWALYN | 1.4 |
| PILKLLPQGISPVSQHWATWALYN | 3.47 |
| PILHLLPQGISPVSQHWATWALYN | 2.46 |
| PILFLLPQGISPVSQHWATWALYN | 4.37 |
| PILYLLPQGISPVSQHWATWALYN | 3.25 |
| PILLLLPQGISPVSQHWATWALYN | 1.38 |
| PILVLLPQGISPVSQHWATWALYN | 2.42 |
| PILTLLPQGISPVSQHWATWALYN | 3.54 |
| PILILLPQGISPVSQHWATWALYN | 3.46 |
